Data as given in patent US20030171278A1 (Genentech, published 2003).
Bridges are numbered along the chain shown (N, C = ends). Where no end group is shown, it is not given here.

Experiments:
BSA = molecular target: T1, BSA (UniProt P02769 25-607); experiment: phage binding assay on immobilized protein
T1 construct: Control coating protein; also called immobilized BSA

HER3 = molecular target: T2, HER3 (UniProt P21860 20-643, limits assumed); experiment: phage binding assay on immobilized protein
T2 construct: Called 'closely related HER3'
T2 sequence (P21860 20-643 limits assumed): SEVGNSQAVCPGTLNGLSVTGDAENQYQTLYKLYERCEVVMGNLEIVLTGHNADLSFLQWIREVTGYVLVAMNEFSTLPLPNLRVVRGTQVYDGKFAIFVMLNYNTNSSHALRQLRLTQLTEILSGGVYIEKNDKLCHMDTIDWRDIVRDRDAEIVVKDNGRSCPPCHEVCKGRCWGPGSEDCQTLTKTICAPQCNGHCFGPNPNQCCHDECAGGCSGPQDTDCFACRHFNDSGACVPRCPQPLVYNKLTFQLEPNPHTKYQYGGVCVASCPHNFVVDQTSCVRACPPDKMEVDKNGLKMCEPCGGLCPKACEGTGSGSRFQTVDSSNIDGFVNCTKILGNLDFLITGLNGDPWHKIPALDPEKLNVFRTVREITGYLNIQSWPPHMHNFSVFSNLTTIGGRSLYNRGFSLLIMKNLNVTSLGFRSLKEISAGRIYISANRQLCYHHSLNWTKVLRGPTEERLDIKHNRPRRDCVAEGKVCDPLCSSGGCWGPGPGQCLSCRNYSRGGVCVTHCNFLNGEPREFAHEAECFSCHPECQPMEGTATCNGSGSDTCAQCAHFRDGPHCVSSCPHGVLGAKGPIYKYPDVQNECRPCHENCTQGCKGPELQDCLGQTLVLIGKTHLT

HER4 = molecular target: T3, HER4 (UniProt Q15303 26-651, limits assumed); experiment: phage binding assay on immobilized protein
T3 construct: Called 'closely related; HER4'
T3 sequence (looked up): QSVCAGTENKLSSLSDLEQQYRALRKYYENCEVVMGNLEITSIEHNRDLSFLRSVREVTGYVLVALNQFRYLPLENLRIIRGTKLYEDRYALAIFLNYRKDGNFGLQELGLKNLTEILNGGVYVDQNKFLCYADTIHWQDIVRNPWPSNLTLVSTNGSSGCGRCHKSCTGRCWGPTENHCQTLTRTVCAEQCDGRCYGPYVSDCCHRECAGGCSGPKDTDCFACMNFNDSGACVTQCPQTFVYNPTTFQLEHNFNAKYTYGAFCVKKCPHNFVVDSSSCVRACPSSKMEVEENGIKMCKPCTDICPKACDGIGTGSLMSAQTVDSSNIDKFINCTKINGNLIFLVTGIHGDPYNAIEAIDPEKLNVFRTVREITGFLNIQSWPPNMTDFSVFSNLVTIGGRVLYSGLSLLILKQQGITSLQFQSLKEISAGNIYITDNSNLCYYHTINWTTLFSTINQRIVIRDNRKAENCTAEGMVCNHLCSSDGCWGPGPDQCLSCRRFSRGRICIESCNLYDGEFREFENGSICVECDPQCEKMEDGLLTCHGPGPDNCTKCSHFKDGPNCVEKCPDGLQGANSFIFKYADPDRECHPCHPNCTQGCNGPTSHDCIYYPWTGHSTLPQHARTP

[1] = molecular target: T4, HER2 extracellular domain (HER2-ECD) (human, UniProt P04626 23-652); experiment: phage binding assay, immobilized HER2-ECD
T4 construct: extracellular domain; also called immobilized HER2; extracellular domain of Erb2

[2] = molecular target: T4, HER2 extracellular domain (HER2-ECD); experiment: competition ELISA, block of 1.1.FI-Zb binding to immobilized HER2-ECD
Protocol: Following a 1 h incubation the plate was washed with PBS-Tween and Strepavidin/HRP conjugate (Streptavidin-POD, Roche Molecular Biochemicals) was added for 30 min.

[3] = molecular target: T4, HER2 extracellular domain (HER2-ECD); experiment: phage ELISA, block of 1.1FI phage binding to immobilized HER2-ECD
Protocol: HER2-ECD was immobilized directly to Maxisorp plates (Nunc) in 50 mM ammonium bicarbonate, pH 9.3, using 5 μg/ml, overnight at 4° C. Wells were blocked using PBS containing 1% BSA (PBS-BSA) for 1 h at 25° C. […] The microtiter plate was washed with PBS containing 0.05% Tween20 (PBS-Tween) and the phage bound to HER2-ECD were detected with an anti-gVIII/HRP monoclonal antibody conjugate (Amersham Pharmacia Biotech).

[4] = molecular target: T4, HER2 extracellular domain (HER2-ECD); experiment: direct binding ELISA, immobilized HER2-ECD, streptavidin-HRP detection

T1 sequence (P02769 25-607 limits assumed): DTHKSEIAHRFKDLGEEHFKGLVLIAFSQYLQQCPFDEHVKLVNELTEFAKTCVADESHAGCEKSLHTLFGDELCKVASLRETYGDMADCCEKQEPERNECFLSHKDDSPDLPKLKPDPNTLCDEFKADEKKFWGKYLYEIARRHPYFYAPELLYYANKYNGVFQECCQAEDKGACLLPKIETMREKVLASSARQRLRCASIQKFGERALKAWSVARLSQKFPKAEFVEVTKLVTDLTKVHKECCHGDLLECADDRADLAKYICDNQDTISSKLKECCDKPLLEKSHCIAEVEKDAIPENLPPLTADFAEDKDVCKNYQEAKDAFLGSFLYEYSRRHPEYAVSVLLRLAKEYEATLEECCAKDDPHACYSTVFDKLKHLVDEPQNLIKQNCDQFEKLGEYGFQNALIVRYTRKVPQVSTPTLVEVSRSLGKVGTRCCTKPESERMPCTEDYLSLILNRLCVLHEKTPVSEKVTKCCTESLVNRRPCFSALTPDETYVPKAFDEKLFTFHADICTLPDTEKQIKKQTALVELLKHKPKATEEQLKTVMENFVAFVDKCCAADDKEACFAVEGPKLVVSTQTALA

| Binder | binding result (BSA) | binding result (HER3) | binding result (HER4) | binding result [1] | IC50 [2] [nM] | further results |
| --- | --- | --- | --- | --- | --- | --- |
| YEVEAWDCMGPGCANLFEAH (not fully specified (C-terminus); cysteine pairing not given here; also: displayed on phage as pVIII fusion, also called Pool 1 clone; not shown: linker and phage coat protein pVIII (polyvalent display)) [phage clone 1.1] | no binding | no binding | no binding | binds |  |  |
| QVYESWGCIGPGCACLQACL (disulfide 8-13, 15-19, Present only as monomer by mass spectrometry; also called synthetic peptide of clone 1.1.FI) [Peptide HER212] |  |  |  |  | 9000 |  |
| QVYESWGCIGPGCACLQACLGGGSGGQVYESWGCIGPGCACLQACL-{Z domain of protein A} (other, not fully specified; cysteine pairing not given here; also: fused to Z domain of protein A (not in chain), also called single chain dimer; 1.1FI repeated twice and fused to the Z domain of protein A) [(1.1FI)2-Z] |  |  |  |  | 20 |  |
| RSCADVASRCWEHCIT (not fully specified (C-terminus); cysteine pairing not given here; also: displayed on phage as pVIII fusion, also called Pool 5 clone; not shown: linker and phage coat protein pVIII (polyvalent display)) [phage clone 5.1] | no binding | no binding | no binding | binds |  |  |
| QVYESWGCIGPGCACLQACLGGGSSG (Fc fusion, not fully specified (C-terminus); cysteine pairing not given here; also: fused through linker to Fc of human IgG1 (not in chain), also called peptide 1.1.FI fused through a linker to Fc of human IgG1; Her2-Fc expression vector product; not shown: Fc portion of the human IgG1 (700 base pair fragment)) [1.1FI-Fc] |  |  |  |  |  | IC50 [3]: 3 nM |
| CSWVLVQCGGEWWHCCGLGCGLVVNAC (not fully specified (C-terminus); printed as Cys-Ser-Trp-Val-Leu-Val-Gln-Cys-Gly-Gly-Glu-Trp-Trp-His-Cys-Cys-Gly-Leu-Gly-Cys-Gly-Leu-Val-Val-Asn-Ala-Cys; cysteine pairing not given here; also: displayed on phage as pVIII fusion, also called Pool 7 clone; not shown: linker and phage coat protein pVIII (polyvalent display)) [phage clone 7.1] | no binding | no binding | no binding | binds |  |  |
| QVYESWGCIGPGCACLQACL (other, not fully specified (C-terminus); cysteine pairing not given here; also: biotinylated with NHS-LC-biotin, sites not given here, fused to Z domain of protein A (not in chain)) [1.1.FI-Zb (biotinylated 1.1.FI-Z)] |  |  |  |  |  | EC50 [4]: 2 nM |
| YSFEGWGCIGPGCAYLFEGH (disulfide 8-13 (inferred), also called synthetic peptide of phage-clone 1.1.2) [Peptide HER201] |  |  |  |  | 300 |  |
